According to patent publication US20160000936A1:

Target: murine IL-17 (mouse) (UniProt Q62386)
Experiment: assay not described; table titled 'Source And Binding Information'

Chain of murine IL-17 (mouse) (Q62386 26-158 limits assumed): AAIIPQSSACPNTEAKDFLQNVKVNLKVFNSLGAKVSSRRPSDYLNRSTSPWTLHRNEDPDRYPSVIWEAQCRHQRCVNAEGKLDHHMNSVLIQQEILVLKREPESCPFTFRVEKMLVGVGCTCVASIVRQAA

For anti-murine IL-17 antibody MAB421, the IC50 was 0.7 nM.
